This is an account of results in the supplement of paper PMC10724198.

± gives the standard deviation of the averaged measurements.

This series has as its system Saccharomyces cerevisiae. Briefly: protein stability index of tFT-peptide fusion (C-terminal peptide) (PSI (0-1 scale)); higher = more stable (slower turnover). To be noted: temperature: 30 C. The method, then: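 MPS profiling in S. cerevisiae of the yeast C-terminome library: the last 12 aa of each annotated ORF are fused to the C-terminus of a sfGFP-mCherry timer, after a GGGS linker. Cells are FACS-sorted into 8 mCherry/sfGFP bins and deep-sequenced. PSI runs from 0 (unstable) to 1 (stable); wild type and das1Δ backgrounds, two technical replicates each.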

Where [1] appears, read: genetic background: das1 deletion.

For the sequence DKKLARAGNNAI [CUE3 C-terminal 12 aa], the protein stability index under setting [1] came out at 0.695 ± 0.0092 and the protein stability index (genetic background: wild type) came out at 0.769 ± 0.0094.
For DKPLYKRMFSTK [HXT6 C-terminal 12 aa], in that order: 0.694 ± 0.022 and 0.7134 ± 0.0047.
For “DKYPFLLYEVVR [YHR022C-A C-terminal 12 aa]”, in that order: 0.5289 ± 0.0027 and 0.544 ± 0.027.
In the same order, the values of DLLNSVVVQRWA [SHP1 C-terminal 12 aa] are 0.697 ± 0.012 and 0.702 ± 0.034.
Regarding DLMISCLMNQET [MTR3 C-terminal 12 aa], the protein stability index under setting [1] is 0.712 ± 0.028 and the protein stability index (genetic background: wild type) turned out to be 0.6732 ± 0.0053.
In the same order, the values of DLTKKPKKITFD [DBP3 C-terminal 12 aa] are 0.6923 ± 0.0048 and 0.638 ± 0.018.
In the case of DNDIYNTISEVR [RAD9 C-terminal 12 aa], the protein stability index reads like this: under setting [1], 0.697 ± 0.022; (genetic background: wild type) 0.727 ± 0.024.
In the same order, the values of DPTTNGSIIKNE [IXR1 C-terminal 12 aa] are 0.6787 ± 0.0023 and 0.7014 ± 0.0049.
For DRLKRRNNDYGF [MSO1 C-terminal 12 aa], in that order: 0.695 ± 0.014 and 0.738 ± 0.054.
For DSLENKIDSMTK [INH1 C-terminal 12 aa], in that order: 0.715 ± 0.018 and 0.714 ± 0.055.
In the case of DSTMKIWSPGYQ [STE4 C-terminal 12 aa], the protein stability index was 0.7158 ± 0.00073 under setting [1] and 0.728 ± 0.011 (genetic background: wild type).
In the case of DSYKLMHSHIHP [IZH1 C-terminal 12 aa], the protein stability index runs as follows: under setting [1], 0.691 ± 0.01; (genetic background: wild type) 0.6721 ± 0.0056.
As for DTSSTVEKKQKT [CCL1 C-terminal 12 aa], the protein stability index was 0.686 ± 0.032 under setting [1] and 0.692 ± 0.038 (genetic background: wild type).
As for DTVVRLIDNIVI [PAN6 C-terminal 12 aa], the protein stability index runs as follows: under setting [1], 0.6896 ± 0.0041; (genetic background: wild type) 0.702 ± 0.07.
For DVERVIRNAGRS [HSL1 C-terminal 12 aa], in that order: 0.693 ± 0.0082 and 0.674 ± 0.0079.
In the same order, the values of EALGKGGRGKRY [LSO1 C-terminal 12 aa] are 0.671 ± 0.013 and 0.678 ± 0.019.
For EALTKASNVNKL [CIT3 C-terminal 12 aa], in that order: 0.6972 ± 0.0031 and 0.65 ± 0.041.
EAQSARNEKPLK [COS8 C-terminal 12 aa]: the protein stability index by setting is: under setting [1], 0.685 ± 0.021; (genetic background: wild type) 0.691 ± 0.029.
For EDRQAFFDSLKE [YGK1 C-terminal 12 aa], in that order: 0.724 ± 0.036 and 0.651 ± 0.025.
In turn, EDSKEYFEAANK [TSA1 C-terminal 12 aa] had a protein stability index under setting [1] of 0.71 ± 0.021 and a protein stability index (genetic background: wild type) of 0.704 ± 0.0061.
In the same order, the values of EDTVNDKANFEG [STL1 C-terminal 12 aa] are 0.673 ± 0.015 and 0.655 ± 0.015.
For EEFLTLLGRRSI [FOL2 C-terminal 12 aa], in that order: 0.708 ± 0.01 and 0.723 ± 0.012.
For EEWYTSNHDSLA [PRP18 C-terminal 12 aa], the protein stability index is, setting by setting: under setting [1], 0.723 ± 0.013; (genetic background: wild type) 0.698 ± 0.014.
In the same order, the values of EFEKAQEINKKA [YRB1 C-terminal 12 aa] are 0.712 ± 0.017 and 0.694 ± 0.02.
In the same order, the values of EGDIEPLKRILK [UBP2 C-terminal 12 aa] are 0.706 ± 0.012 and 0.675 ± 0.088.
For EGRKVKKVSFAQ [LOC1 C-terminal 12 aa], in that order: 0.7297 ± 0.0035 and 0.7111 ± 0.0032.
Take EHYSDGDVCIII [DAL3 C-terminal 12 aa]: the protein stability index came to 0.68 ± 0.032 under setting [1] and 0.68 ± 0.016 (genetic background: wild type).
Sequence EIASCSSSIYSE [DSE3 C-terminal 12 aa] displayed a protein stability index under setting [1] of 0.696 ± 0.022 and a protein stability index (genetic background: wild type) of 0.711 ± 0.035.
For EIIRVGPQESII [MRP49 C-terminal 12 aa], in that order: 0.723 ± 0.019 and 0.749 ± 0.034.
As to EIRKIMMEEQPR [CHM7 C-terminal 12 aa], the protein stability index reads like this: under setting [1], 0.6863 ± 0.0051; (genetic background: wild type) 0.66 ± 0.0089.
For EKLPSKFTFKRE [ARN1 C-terminal 12 aa], in that order: 0.696 ± 0.012 and 0.6817 ± 0.0011.
For ELERDITISREY [MIP1 C-terminal 12 aa], in that order: 0.701 ± 0.028 and 0.698 ± 0.068.
On to ELIEDPRKMLLW [KGD2 C-terminal 12 aa], for which the protein stability index came to 0.694 ± 0.014 under setting [1] and 0.69 ± 0.033 (genetic background: wild type).
In the same order, the values of ELLRLHNCHLPV [RMA1 C-terminal 12 aa] are 0.713 ± 0.018 and 0.7 ± 0.0081.
In the same order, the values of ELPGVAFLSEKK [PGK1 C-terminal 12 aa] are 0.728 ± 0.016 and 0.67 ± 0.0094.
In the same order, the values of ELTKALDLLNSI [VTA1 C-terminal 12 aa] are 0.691 ± 0.015 and 0.694 ± 0.047.
In the case of ENISSPLGKKSR [PSY4 C-terminal 12 aa], the protein stability index runs as follows: under setting [1], 0.691 ± 0.0098; (genetic background: wild type) 0.706 ± 0.0047.
For ENYYPSSLTLDI [JLP1 C-terminal 12 aa], in that order: 0.72281 ± 0.00028 and 0.696 ± 0.062.
In the same order, the values of EPTKKGFLVCRM [YMR320W C-terminal 12 aa] are 0.771 ± 0.037 and 0.702 ± 0.05.
For EQIELKNFFVDV [YCR016W C-terminal 12 aa], in that order: 0.6881 ± 0.0062 and 0.6997 ± 0.0015.
Regarding EREKVDIHIPQV [BEM3 C-terminal 12 aa], the protein stability index under setting [1] came to 0.711 ± 0.02 and the protein stability index (genetic background: wild type) came to 0.701 ± 0.011.
Consider ESIEELLRKTLE [ZNG1 C-terminal 12 aa], for which the protein stability index was determined as 0.687 ± 0.02 under setting [1] and 0.735 ± 0.067 (genetic background: wild type).
For ESIVDFVERHED [IMO32 C-terminal 12 aa], in that order: 0.714 ± 0.017 and 0.691 ± 0.019.
On to ESPIDAEKNFAR [INA1 C-terminal 12 aa], for which the protein stability index came out at 0.693 ± 0.0098 under setting [1] and 0.6821 ± 0.0024 (genetic background: wild type).
On to ETMGARLKIDGK [YJR149W C-terminal 12 aa], for which the protein stability index by setting is: under setting [1], 0.7079 ± 0.0065; (genetic background: wild type) 0.689 ± 0.011.
For ETPSQTSQEATQ [ERG6 C-terminal 12 aa], in that order: 0.731 ± 0.0089 and 0.722 ± 0.015.
In the same order, the values of ETSITNDNESQQ [PPZ1 C-terminal 12 aa] are 0.695 ± 0.0074 and 0.701 ± 0.04.
In the same order, the values of EVALAPSSNMIF [YKL083W C-terminal 12 aa] are 0.716 ± 0.02 and 0.713 ± 0.0034.
For the sequence EVDELPEGYDRS [TAH1 C-terminal 12 aa], the protein stability index reads like this: under setting [1], 0.6846 ± 0.0037; (genetic background: wild type) 0.6764 ± 0.002.
In the same order, the values of EVLAADNTRVPC [YLL067C C-terminal 12 aa] are 0.6968 ± 0.0039 and 0.677 ± 0.028.
In the same order, the values of EVLERSVLLRKR [MDJ2 C-terminal 12 aa] are 0.699 ± 0.017 and 0.688 ± 0.01.
In the same order, the values of EVSQYAAFFQDD [CTM1 C-terminal 12 aa] are 0.719 ± 0.02 and 0.712 ± 0.028.
Consider EVTAKTSLVSPK [ROX1 C-terminal 12 aa], for which the protein stability index was determined as 0.7021 ± 0.004 under setting [1] and 0.676 ± 0.018 (genetic background: wild type).
For EVVKRYLKMRQD [PUP3 C-terminal 12 aa], in that order: 0.7 ± 0.011 and 0.5999 ± 0.0049.
In the same order, the values of “FAFSFPITNVLE [YAL016C-B C-terminal 12 aa]” are 0.703 ± 0.012 and 0.683 ± 0.049.
In the case of FAQDLMKCTYKI [NUP145 C-terminal 12 aa], the protein stability index was determined as 0.708 ± 0.0095 under setting [1] and 0.656 ± 0.018 (genetic background: wild type).
For FATFELAMRLLG [YMC1 C-terminal 12 aa], in that order: 0.674 ± 0.015 and 0.194 ± 0.013.
For FCESDSIKMYPT [FYV10 C-terminal 12 aa], in that order: 0.706 ± 0.0071 and 0.698 ± 0.026.
For FCISFPCFGLSI [AIM26 C-terminal 12 aa], in that order: 0.679 ± 0.037 and 0.704 ± 0.003.
Take FCLQCFKDYCYS [SPO1 C-terminal 12 aa]: the protein stability index by setting is: under setting [1], 0.6444 ± 0.0063; (genetic background: wild type) 0.654 ± 0.032.
For the sequence FDSEHFYSPVQT [PRP3 C-terminal 12 aa], the protein stability index under setting [1] was 0.7065 ± 0.0023 and the protein stability index (genetic background: wild type) came to 0.71 ± 0.024.
For FDVELVDVKSAA [FPR2 C-terminal 12 aa], in that order: 0.6795 ± 0.0018 and 0.687 ± 0.037.
In the case of FEVDVDSLFKLY [MET1 C-terminal 12 aa], the protein stability index reads like this: under setting [1], 0.707 ± 0.018; (genetic background: wild type) 0.442 ± 0.0068.
In turn, “FFHRISHFLESA [YLR299C-A C-terminal 12 aa]” came in with a protein stability index under setting [1] of 0.704 ± 0.018 and a protein stability index (genetic background: wild type) of 0.695 ± 0.025.
For FGDCHLENSHLH [SPO75 C-terminal 12 aa], in that order: 0.7041 ± 0.0012 and 0.719 ± 0.017.
In the same order, the values of FGICAIHWGIKV [COQ5 C-terminal 12 aa] are 0.385 ± 0.02 and 0.411 ± 0.013.
Take FGLFKKKNKSKK [SVL3 C-terminal 12 aa]: the protein stability index runs as follows: under setting [1], 0.727 ± 0.027; (genetic background: wild type) 0.726 ± 0.073.
Consider FGSSRSEWYLAL [YPL114W C-terminal 12 aa], for which the protein stability index was determined as 0.701 ± 0.029 under setting [1] and 0.709 ± 0.031 (genetic background: wild type).
